Key:
healthy volunteers = test: Eight-hour euglycemic glucose clamp; assay type: in vivo, human; conditions: mean ± SD; 0.15 units/kg s.c.; 14 healthy volunteers; 8-h euglycemic clamp
[1] = Serum insulin pharmacokinetics after subcutaneous injection; assay type: in vivo, human; conditions: 0.15 units/kg s.c., 14 healthy volunteers

In the case of insulin glulisine, the “onset of action (early T50% GIRmax)” value (healthy volunteers) is reported as 47 ± 19 min, the “time to 50% glucose infused” value (healthy volunteers) is reported as 183 ± 34 min and the “onset (early t50%) of exposure” value [1] is reported as 21 min. For the same substance, the tmax [1] was 1.33 h.
